Measured values: publication PMC9706563 (2022)
Like-named read-outs stand apart in the source and are kept apart here. Bridge positions count the residues as written; N and C are the ends. Square brackets hold non-standard residues; d marks the D form. Ends that are not written are not given here. * marks the point of attachment. FITC = O=C1OC2(c3ccc(O)cc3Oc3cc(O)ccc32)c2ccc(NC(=S)*)cc21; Phe(4-NO2) = N[C@@H](Cc1ccc([N+](=O)[O-])cc1)C(=O)O; Gla = N[C@@H](CC(C(=O)O)C(=O)O)C(=O)O; Dap = NC[C@H](N)C(=O)O; AEEA = NCCOCCOCC(=O)O

Legend:
Experiment in all cases: FP
[1] = biological target: T1, PRMT5-MEP50 complex (full-length, purified) (human | , UniProt O14744 1-637; Q9BQA1 1-342)
T1 sequence (O14744 whole entry, chain 1 of 2): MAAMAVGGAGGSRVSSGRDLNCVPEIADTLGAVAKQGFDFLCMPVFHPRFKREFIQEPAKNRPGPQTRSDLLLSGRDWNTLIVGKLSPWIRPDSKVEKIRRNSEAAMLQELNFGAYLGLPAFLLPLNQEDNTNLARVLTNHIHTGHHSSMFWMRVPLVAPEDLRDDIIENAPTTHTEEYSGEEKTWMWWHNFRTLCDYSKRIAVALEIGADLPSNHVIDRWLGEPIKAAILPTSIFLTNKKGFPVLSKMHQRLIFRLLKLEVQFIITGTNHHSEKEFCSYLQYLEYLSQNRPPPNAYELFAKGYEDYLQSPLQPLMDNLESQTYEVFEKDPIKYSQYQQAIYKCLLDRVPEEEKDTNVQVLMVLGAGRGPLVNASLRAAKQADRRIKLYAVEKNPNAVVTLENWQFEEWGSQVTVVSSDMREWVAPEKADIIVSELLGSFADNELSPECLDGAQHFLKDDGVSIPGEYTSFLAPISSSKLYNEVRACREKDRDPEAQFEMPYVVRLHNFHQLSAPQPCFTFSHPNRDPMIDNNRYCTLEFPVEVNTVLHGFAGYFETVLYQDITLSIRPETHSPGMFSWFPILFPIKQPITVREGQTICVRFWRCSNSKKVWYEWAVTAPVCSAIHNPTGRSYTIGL
T1 sequence (Q9BQA1 whole entry, chain 2 of 2): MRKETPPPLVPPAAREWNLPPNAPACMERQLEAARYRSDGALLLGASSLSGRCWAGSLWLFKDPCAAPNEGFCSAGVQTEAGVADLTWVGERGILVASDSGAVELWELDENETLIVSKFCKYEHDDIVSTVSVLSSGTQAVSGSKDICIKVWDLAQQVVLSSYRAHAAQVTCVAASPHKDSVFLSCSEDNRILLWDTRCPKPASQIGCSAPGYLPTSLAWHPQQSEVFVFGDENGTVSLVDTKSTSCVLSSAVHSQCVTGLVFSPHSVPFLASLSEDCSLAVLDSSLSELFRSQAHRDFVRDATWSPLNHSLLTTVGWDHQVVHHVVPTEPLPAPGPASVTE

[2] = biological target: T1, PRMT5-MEP50 complex (full-length, …); remark: listed apart in the source
[3] = biological target: T1, PRMT5-MEP50 complex (full-length, …); remark: listed apart in the source

Binder	Ki [2]	also measured
{FITC-AEEA}-SRVVP[Dap]QFDDADSSD-NH2 (lactam 6-9; not fully specified) [5]	–	Kd [1]: > 2000 nM
VPGQFDDA[Gla] (also: FITC as in peptide 29) [linear peptide 40 (29 with Asp replaced by Gla)]	–	Kd [3]: 245 nM
VPGQ[Phe(4-NO2)]DDAD (also: FITC as in peptide 29) [linear peptide 41 (29 with Phe replaced by Phe(4-NO2))]	–	Kd [3]: 232 nM

Second part, led by results:

Ki [2]	Binder	also measured
5100 nM	SRVVP[dA]QFDDADSSD [peptide 1 (RioK1 PBM with D-Ala)]	–
4500 nM	SRVVPGQF[dA]DADSSD [peptide 2 (RioK1 PBM with D-Ala)]	–
65000 nM	SRVVP[dA]QF[dA]DADSSD [peptide 3 (RioK1 PBM with D-Ala at 14 and 17)]	–
1800 nM	SRVVPGQFDDADSSD (unlabeled; taken as the same span as the printed RioK1 tracer sequence (7BOC entity 2); end groups are in the figure/SI) [peptide 4 (native RioK1 PBM sequence, unlabeled reference)]	–
